Measurements taken from publication PMC8659110 (2021).
Primed or numbered codes have the meaning given here. Where no end group is shown, it is not given here. Cy5 = Cy5 fluorophore (fluorescent dye); NODAGA′ = chelator

Molecular target: NRP-1 recombinant chimeric protein ( (recombinant human/rat NRP-1 …, UniProt O14786 22-856))
Assay: ELISA; competition with biotinylated VEGF-165

NRP-1 recombinant chimeric protein (, sequence (O14786 22-856, change not shown): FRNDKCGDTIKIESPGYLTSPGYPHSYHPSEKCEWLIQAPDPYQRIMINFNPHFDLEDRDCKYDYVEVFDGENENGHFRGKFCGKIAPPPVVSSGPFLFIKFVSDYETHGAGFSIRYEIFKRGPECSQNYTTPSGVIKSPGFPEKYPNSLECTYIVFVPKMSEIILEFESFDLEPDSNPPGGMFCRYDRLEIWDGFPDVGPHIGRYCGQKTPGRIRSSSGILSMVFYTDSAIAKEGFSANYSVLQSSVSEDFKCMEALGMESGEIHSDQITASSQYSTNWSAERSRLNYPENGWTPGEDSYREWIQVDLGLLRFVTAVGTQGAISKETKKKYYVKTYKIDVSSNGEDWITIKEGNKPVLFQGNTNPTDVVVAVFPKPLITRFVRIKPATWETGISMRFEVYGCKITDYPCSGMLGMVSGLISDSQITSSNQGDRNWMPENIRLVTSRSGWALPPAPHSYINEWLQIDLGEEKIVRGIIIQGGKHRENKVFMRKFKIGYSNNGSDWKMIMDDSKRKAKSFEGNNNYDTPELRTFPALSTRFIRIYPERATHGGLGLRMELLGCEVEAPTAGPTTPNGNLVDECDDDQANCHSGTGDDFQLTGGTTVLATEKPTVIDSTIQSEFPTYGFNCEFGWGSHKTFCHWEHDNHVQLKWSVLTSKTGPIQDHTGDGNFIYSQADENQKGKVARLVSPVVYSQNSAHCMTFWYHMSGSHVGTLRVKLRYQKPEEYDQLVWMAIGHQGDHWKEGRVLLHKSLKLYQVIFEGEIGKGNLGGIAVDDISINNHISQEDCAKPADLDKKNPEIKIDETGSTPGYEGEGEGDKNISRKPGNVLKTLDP

Binder	IC50
{NODAGA′}-K(Cy5)DKPPR (also: NODAGA complexed with natGa) [^natGa-NODAGA-K(Cy5)DKPPR]	100 nM
KDKPPR [KDKPPR peptide]	2000 nM
